One assay addresses T1, RPTPα (Homo sapiens, UniProt P18433).
T1 construct: made in house; host or cells: Sf9 cells (baculovirus)
In words: Phosphatase assay with ENDY(P)INASL as substrate. Type of assay: biochemical. In short, it runs like this:
(§1)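 Read-out is radioactivity left in the supernatant after charcoal removal of unreacted ENDY(P)INASL. Reactions ran in buffer M6 for 10 min at 30° C with purified phosphatase and effectors.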

In a further assay the target is T2, CD45 (Homo sapiens, UniProt P08575).
T2 construct: CD45 were purified from placenta and spleen, respectively; from tissue; host or cells: spleen
T2 sequence (P08575 26-1306): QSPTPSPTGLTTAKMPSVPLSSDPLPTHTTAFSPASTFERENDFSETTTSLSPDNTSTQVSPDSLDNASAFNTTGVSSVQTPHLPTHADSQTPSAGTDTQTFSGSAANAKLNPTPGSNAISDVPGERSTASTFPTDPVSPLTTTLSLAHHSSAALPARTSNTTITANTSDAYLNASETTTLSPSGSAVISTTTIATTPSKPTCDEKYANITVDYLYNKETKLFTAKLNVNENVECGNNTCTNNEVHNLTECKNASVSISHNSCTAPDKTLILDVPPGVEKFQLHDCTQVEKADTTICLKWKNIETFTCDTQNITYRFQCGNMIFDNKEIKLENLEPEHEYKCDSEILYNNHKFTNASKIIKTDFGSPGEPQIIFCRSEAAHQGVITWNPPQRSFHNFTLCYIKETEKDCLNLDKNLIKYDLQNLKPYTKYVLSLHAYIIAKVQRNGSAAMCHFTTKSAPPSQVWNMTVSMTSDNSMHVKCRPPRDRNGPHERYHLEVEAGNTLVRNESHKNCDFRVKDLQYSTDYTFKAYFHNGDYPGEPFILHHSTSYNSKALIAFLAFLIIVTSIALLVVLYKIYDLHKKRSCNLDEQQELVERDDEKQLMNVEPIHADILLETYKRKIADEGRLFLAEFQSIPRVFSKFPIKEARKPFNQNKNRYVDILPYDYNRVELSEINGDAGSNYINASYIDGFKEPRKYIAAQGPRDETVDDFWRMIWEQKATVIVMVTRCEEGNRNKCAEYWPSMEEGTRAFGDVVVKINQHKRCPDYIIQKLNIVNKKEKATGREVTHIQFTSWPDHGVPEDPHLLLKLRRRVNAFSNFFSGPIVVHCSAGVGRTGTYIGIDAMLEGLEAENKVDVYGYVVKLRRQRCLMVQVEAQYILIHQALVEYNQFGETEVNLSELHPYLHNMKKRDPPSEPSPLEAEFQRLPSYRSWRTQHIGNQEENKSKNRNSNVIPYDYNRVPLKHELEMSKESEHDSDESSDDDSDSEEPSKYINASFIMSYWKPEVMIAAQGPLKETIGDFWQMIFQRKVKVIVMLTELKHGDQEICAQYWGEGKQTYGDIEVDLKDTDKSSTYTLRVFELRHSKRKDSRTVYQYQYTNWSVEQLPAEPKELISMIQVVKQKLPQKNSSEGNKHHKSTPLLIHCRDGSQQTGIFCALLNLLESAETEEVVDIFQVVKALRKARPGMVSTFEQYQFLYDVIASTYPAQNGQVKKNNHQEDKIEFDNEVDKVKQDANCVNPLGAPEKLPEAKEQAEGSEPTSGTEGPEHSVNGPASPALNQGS
Nature of the assay: Phosphatase assay with ENDY(P)INASL as substrate. The class given is biochemical. The method, boiled down: as §1

The mark [1] stands for this setting: non-linear regression of substrate saturation curves, mean of two experiments.
Where [2] appears, read: one unit = release of 1 nmol phosphate per minute.

Where no end group is shown, it is not given here. [ ]: non-standard residue; d: D form. pY = N[C@@H](Cc1ccc(OP(=O)(O)O)cc1)C(=O)O

T1 sequence (P18433 20-802): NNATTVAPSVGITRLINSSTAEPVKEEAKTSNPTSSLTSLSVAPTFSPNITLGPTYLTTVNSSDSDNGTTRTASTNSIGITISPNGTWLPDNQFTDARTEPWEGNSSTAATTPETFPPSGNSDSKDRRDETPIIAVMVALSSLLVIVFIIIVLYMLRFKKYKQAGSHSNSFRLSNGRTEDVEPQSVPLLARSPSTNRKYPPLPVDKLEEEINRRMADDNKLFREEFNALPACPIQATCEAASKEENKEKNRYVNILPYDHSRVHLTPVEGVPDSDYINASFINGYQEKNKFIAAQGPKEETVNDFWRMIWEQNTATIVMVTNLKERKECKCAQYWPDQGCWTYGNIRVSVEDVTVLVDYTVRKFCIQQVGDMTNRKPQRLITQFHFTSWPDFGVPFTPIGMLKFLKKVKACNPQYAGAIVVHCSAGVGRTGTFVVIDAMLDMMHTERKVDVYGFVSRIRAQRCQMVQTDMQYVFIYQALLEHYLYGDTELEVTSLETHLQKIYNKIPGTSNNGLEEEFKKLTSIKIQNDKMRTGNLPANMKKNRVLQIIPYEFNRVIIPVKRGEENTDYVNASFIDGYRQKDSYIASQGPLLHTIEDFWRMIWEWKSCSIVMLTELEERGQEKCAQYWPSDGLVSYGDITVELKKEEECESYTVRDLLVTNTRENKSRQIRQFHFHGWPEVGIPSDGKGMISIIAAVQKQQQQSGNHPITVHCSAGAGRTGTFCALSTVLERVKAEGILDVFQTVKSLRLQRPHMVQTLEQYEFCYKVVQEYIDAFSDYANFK

What is called Km is the concentration of substrate that gives half-maximal velocity. As to “ENDY(P)INASL: ENDYINASL phosphorylated on its tyrosine residue (32P), used as PTP substrate (END[pY]INASL; also: phosphate 32P-labelled)”, the Km was determined as 32.5 ± 3.06 µM with RPTPα (setting [1]) and 13.8 ± 0.28 µM in the assay with CD45 (setting [1]). The Vmax with RPTPα (setting [2]) was 1038 +/- 88 U/mg; with CD45 (setting [2]) it was 1622 +/- 23 U/mg.
